The record followed here is patent US20180072803A1 (MINOMIC INTERNATIONAL, published 2018).

Experiment [1] has as its target T1, MIL-38 antigen (GPC-1) as present in DU-145 and other cell lines (UniProt P35052 24-530).
T1 construct: whole, on cells; In IFA it stood on acetone-fixed cells; in Western blots it stood in membrane protein (MPEK) extracts of the cells; also called GPC-1 antigen
T1 sequence (looked up): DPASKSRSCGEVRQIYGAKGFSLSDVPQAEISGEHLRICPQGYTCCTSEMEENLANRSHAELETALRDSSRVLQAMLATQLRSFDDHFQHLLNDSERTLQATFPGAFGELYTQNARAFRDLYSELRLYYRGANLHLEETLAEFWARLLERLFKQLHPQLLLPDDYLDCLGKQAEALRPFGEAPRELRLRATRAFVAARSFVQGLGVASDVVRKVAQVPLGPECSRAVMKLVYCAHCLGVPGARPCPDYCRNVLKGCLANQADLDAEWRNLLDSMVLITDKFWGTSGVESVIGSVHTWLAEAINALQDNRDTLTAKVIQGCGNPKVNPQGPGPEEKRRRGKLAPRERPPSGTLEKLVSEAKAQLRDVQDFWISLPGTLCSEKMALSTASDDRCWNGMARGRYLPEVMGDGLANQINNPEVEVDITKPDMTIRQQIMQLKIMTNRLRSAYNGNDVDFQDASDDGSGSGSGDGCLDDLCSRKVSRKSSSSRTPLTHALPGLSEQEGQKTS
Nature of the experiment: Western blot on DU-145 and C3 extracts (FIG. 2B). A general note: Immunoblotting shows a protein as a band on a membrane.

Experiment [2] has as its target T2, recombinant human GPC-1 produced from NS0 cells (human, UniProt P35052 24-530).
T2 construct: also called GPC-1 NS0; recombinant NS0-produced GPC-1
T2 sequence (looked up): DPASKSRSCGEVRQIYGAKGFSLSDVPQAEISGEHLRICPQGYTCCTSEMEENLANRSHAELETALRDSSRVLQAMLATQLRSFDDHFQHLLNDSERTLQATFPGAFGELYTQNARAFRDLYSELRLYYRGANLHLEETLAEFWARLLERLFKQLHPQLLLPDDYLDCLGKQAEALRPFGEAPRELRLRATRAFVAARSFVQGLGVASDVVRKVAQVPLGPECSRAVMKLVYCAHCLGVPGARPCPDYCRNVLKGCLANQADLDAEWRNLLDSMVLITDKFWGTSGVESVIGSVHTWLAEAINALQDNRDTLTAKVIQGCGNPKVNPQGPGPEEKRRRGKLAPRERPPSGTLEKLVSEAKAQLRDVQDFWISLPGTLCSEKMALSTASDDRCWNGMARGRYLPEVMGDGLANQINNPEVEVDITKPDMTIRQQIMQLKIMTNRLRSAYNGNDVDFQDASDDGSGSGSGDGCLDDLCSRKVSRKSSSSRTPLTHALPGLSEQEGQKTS
The experiment in a line: sandwich ELISA, antibody coated as capture, biotinylated AM-4 as detection (FIG. 6A). On the procedure: Plates were blocked with PBS-Tween (0.1.%) containing 5% skim milk at 37° C. and washed. Antigen (recombinant human GPC-1 produced from NS0 cells) diluted in Buffer II (20 mM HEPES pH 7.5, 0.5 mM EDTA, 0.5% Triton X-100) with the addition of 150 mM NaCl and incubated overnight at 37° C. […] Absorbance was read 450 nm.

In experiment [3] the target is T1, MIL-38 antigen (GPC-1) as present in …. Nature of the experiment: immunofluorescence assay on DU-145 cells (FIG. 8F). On the procedure: IFA: Cells were grown on coverslips until 75% confluent and placed in 6 well plates. The cells were washed with PBS followed by fixing with acetone. Cells were washed again with PBS followed by incubation with TBS then blocked with PBS containing 5% skim milk. […] Both antibodies were prepared in PBS containing 1% skim milk followed. Washing with PBS was performed between the primary and secondary antibody incubations. After secondary incubation, cells were washed with PBS containing DAPI and visualised for green fluorescence (MIL-38 positive).
A slide with no primary antibody was used as a negative control.

Experiment [4] concerns the target T2, recombinant human GPC-1 produced from …. Nature of the experiment: Western blot, three-antibody detection. On the procedure: As a control, murine MIL-38 was detected by goat anti-mouse secondary antibody followed by a sheep-anti-goat HRP antibody. […] The complex was detected using a sheep-anti-goat HRP antibody. […] The complex was detected using a sheep-anti-mouse HRP antibody.
A control western blot using a three antibody detection method was also performed with murine MIL-38. (FIG. 9C).

B1: AM-4 MIL-38 antibody (AusMAb 4) (antibody, mouse IgG1, kappa)
heavy: QIQLVQSGPELKKPGETVKISCKASGYAFTDYSMNWVKQAPGKGLRWMGWINTETGEPTYTDDFKGRFAFSLETSASTAFLQINNLRNEDTATYFCARHYDYGGFPYWGQGTLVTVSAAKTTPPSVYPLAPGSAAQTNSMVTLGCLVKGYFPEPVTVTWNSGSLSSGVHTFPAVLQSDLYTLSSSVTVPSSTWPSETVTCNVAHPASSTKVDKKIVPRDCGCKPCICTVPEVSSVFIFPPKPKDVLTITLTPKVTCVVVDISKDDPEVQFSWFVDDVEVHTAQTQPREEQFNSTFRSVSELPIMHQDWLNGKEFKCRVNSAAFPAPIEKTISKTKGRPKAPQVYTIPPPKEQMAKDKVSLTCMITDFFPEDITVEWQWNGQPAENYKNTQPIMDTDGSYFVYSKLNVQKSNWEAGNTFTCSVLHEGLHNHHTEKSLSHSPGK
light: DIQMTQSPASLSASVGETVTITCRASGNVHNYLAWYQQKQGKSPQLLVYTAKTLADGVPSRFSGSGSGTQYSLKINSLQPEDFGTYYCQHFWSNPWTFGGGTKLEIKRADAAPTVSIFPPSSEQLTSGGASVVCFLNNFYPKDINVKWKIDGSERQNGVLNSWTDQDSKDSTYSMSSTLTLTKDEYERHNSYTCEATHKTSTSPIVKSFNRNEC
notes: Monoclonal mouse IgG1 kappa; Biotinylated AM-4 was also the detection antibody in the sandwich ELISA; also called monoclonal AM-4 MIL-38
B1: the binding result in experiment [1] and in experiment [2] was “binds” each time.

B2: Chimeric MIL-38 antibody (Mouse VH-Human CH1-CH3 / Mouse VK-Human CK) (antibody, human IgG1, kappa)
heavy: not shown
light: DIQMTQSPASLSASVGETVTITCRASGNVHNYLAWYQQKQGKSPQLLVYTAKTLADGVPSRFSGSGSGTQYSLKINSLQPEDFGTYYCQHFWSNPWTFGGGTKLEIKRTVAAPSVFIFPPSDEQLKSGTASVVCLLNNFYPREAKVQWKVDNALQSGNSQESVTEQDSKDSTYSLSSTLTLSKADYEKHKVYACEVTHQGLSSPVTKSFNRGEC
notes: Expressed transiently in CHO-3E7 cells and purified on Protein A; also called MIL-38 chimeric antibody
In the case of B2, the binding result in experiment [3] and in experiment [4] was “binds” each time.
